Measurements: the nanobody polyreactivity screen of Harvey et al. (2022)

Assay: yeast display, Sf9 membrane polyspecificity reagent, FACS + sequencing; frameworks hold sequencing errors
Outline: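 Synthetic nanobody libraries on Saccharomyces cerevisiae BJ5465 were galactose-induced for 36–48 hours, stained 1 hour at 4 °C with 10% biotinylated, detergent-solubilized Sf9 membrane reagent and enriched on streptavidin microbeads. FACS then separated cells into low and high (top ~1%) gates by anti-HA (expression) and streptavidin (reagent binding) fluorescence. Genes were colony-PCR amplified, MiSeq 2 × 250 sequenced and CDR-length filtered. A clone's polyreactivity label is that of its gate of origin.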

QVQLVESGGGLVQAGGSLRLSCAASGRILYYNVMVWYRQAPGKERELVASNTSVVSTNYADSVKGRFTISRDNAKNTVYLHMNSLKPEDTAVYYCAARYFSGSFSDEIWGMDYWGQGTQVTVSS
polyreactivity (PSR sort gate): high polyreactivity

QVQLEESRGGLGQAGGSLRLICAASGRTFAYNPMGWSRQAPGKERELVSAITWSGGSTYYADSVKGRFTISRDNAKNTVYLQMNSLKPEDTAVYYCAREWFQYSPYHRFDYWGQGTQVTVSS
polyreactivity (PSR sort gate): high polyreactivity

QVHLVESGGGLVQAGGSLRLSCAASGSTFIYNTMGWYRQAPGKERELVATITDSSDSTNYADSVKGRFTITRDNAKNTVYLQMNSLKPDDTAVYYCAADGEVDIATYPSQITDYDYWGQGTQVTVSS
polyreactivity (PSR sort gate): low polyreactivity

QVQLVESGGGLVQAGGSLRLSCAASGRIFPFYVMGWDRQAPGKERELVATINWSGGSTYYADSVKGRFTISRDNAKNTLYLQMNSLKPEDTAVYYCNAAPSDDYDYWGQGTQVTVSS
polyreactivity (PSR sort gate): low polyreactivity

QVQLVESGGGLVQAGGSLRLSCAASGSIFRFYAMGWYRQAPGKERELDAVITSTGRKYYADSVKGRFTISRDNAKNTGYLQMTSLKPEDTAVYYCNAAEAGKGAYAYDYWGQGTQVTVSS
polyreactivity (PSR sort gate): low polyreactivity

QVQLVESGGGLVQAGGSLRLSCAASGFTFGAYAMGWYRQAPGKERELVAAITWSGSSTYYADSVKGRFTISRDNAKNTVYLQMNSLKPEDTAVYYCNVQDKGYVSYYGGDSWGQGTQVTVSS
polyreactivity (PSR sort gate): high polyreactivity

QVQLVESAGGLVQAGGSLRLSCAASGLTYYFYPMGWYRQAPGKETELVAAINYDDGSTYYADSVKGRFTISRDNAKNTVYLQMNSLKPEDTAVYYCAADRDFRTPRLYYWGQGTQVTVSS
polyreactivity (PSR sort gate): low polyreactivity

QVHLVESGGGLVQAGGSLRLICAASGRIYTFYAMGWYRQAPGKERHLVAAIRGSSVSTYYADSVKGRFTISRDNAKITVYLQMNSLKPEDTAVYYCAADIYLWNSEYYYWGQGTQVTVSS
polyreactivity (PSR sort gate): low polyreactivity

QVQLVESGGGLVQAGGSLRLSCAASGSTFGDNTMGWYRQAPGKERELVAAISRRGGSTYYADSVKGRFTISRDNAKNTVYLQMNSLKPEDTAVYYCADEWQQLGGPVYYWGQGTQVTVSS
polyreactivity (PSR sort gate): high polyreactivity

HVQLQESGGGLVQAGGDLRLSCAASGNIFRDYIMGWYRQAPGKEREFVAGIDRGANTNYADSVKGRFTISRDNAKNTVYLQMNSLIPEDTAVYYCAVHTAIVPDFIYWGQGTQVTVSS
polyreactivity (PSR sort gate): low polyreactivity

QVHLVESGGGLVQAGGSHRLSCAASGRTFDNYAMGWYRQAPGKERELVAAISRRGGSTYYADSVKGRFTISRDNAKNTVYLQMNSLKPEDTAVYYCAADRLVWKPTVVGFYYWGQGTQVTVSS
polyreactivity (PSR sort gate): high polyreactivity

QVQLVESGGGLVQAGGSLRLSCAASGSIFYRYAMGWYRQAPGKERELVAAIRWSGGSTYYADSVKGRFTISRDNAKNTVYLQMNSLKPEDTAVYYCNGTWAYRGHGYWGQGTQVTVSS
polyreactivity (PSR sort gate): low polyreactivity

HVQLVESGGGLVQAGGSLRLSCAASGSTLYSYAMGWYRQAPGKARELVAAISIGDSTNYADSVKGRFTISRDNAKNTVYLQMNSLKPEDTAVYYCNADRALGYYVVVFIFEYWGQGTQVTVSS
polyreactivity (PSR sort gate): low polyreactivity

QDQLVESGGGLVQAGVSLRLSCAASGSIIGSYAMGWYREAPAKERELVAAITRSGSRTYYADSVKGRFTISRDNAKNTVYLQINSLKPEDTAVYYCATGYPGGFDYWGLGTQVTVSS
polyreactivity (PSR sort gate): high polyreactivity

QVQLVESGGGLVQAGGSLRLSCAASGFTFVINDLGWYRQAPGKERELVADITSGGDTYYADSVKGRFTISRDNAKNTVYLQMNSLKPEDTAFYYCAADIYPDWIYLLYGYWGQGTQVTVSS
polyreactivity (PSR sort gate): low polyreactivity

QVQLVESGGGLVQAGGSLRLRCAASGSTFDGNAMGWYRQAPGKETELVAAITSGGSTNYADSVKGRFTISRDNANNTVYFQMYSLKPEDTAVYYCAAYTVSFSILYDYWGQGTQVTLSS
polyreactivity (PSR sort gate): low polyreactivity

QVHLVESGGGLVQAAGSLRLSCAASGFIFYYYAMGWYRQAPGKERELVAAISRSGGRTYYADSVKGRFTISRDNAKNTVYLQMNSLKPEDTAVYYCAAPGYQTVGMGYWGQGTQVTVSS
polyreactivity (PSR sort gate): high polyreactivity

QVQLVESGGGLVQAGGSLRLSCAATGRIFSLYAMGWYRQAPGKERELVASITRSGVRTYYADSVKGRFTISRDNAKNTVYLQMNSLKPEDTAVYYCAAPYLYSQGTYYRSSGMDYWGQGTQVTVSS
polyreactivity (PSR sort gate): low polyreactivity

QVQLVESGGGLVQAGGSLRLICAASGRIFGDNGMGWYTQAPGKERELVTYADSVKGRFTISRDNAKNTVYLQMNSLKPEDTAVYYCNKVPPRFSGLDENYWGQGTQVTVSS
polyreactivity (PSR sort gate): low polyreactivity

QVQLVESGGGLVQAGGSLRLSCAASGLTFPLYAMGWYRQAPGKEREFVAAITVSGVSTSYADSEKGRFTISRDIAKITVYLQMNSLKPEDTAVYYCAADYYIWTYWDVYYWGQGTQVTVSS
polyreactivity (PSR sort gate): high polyreactivity

QVQLVESGGGLVQAGGSLRLSCAASGSTFYVYAMGWYRQAPGKERELVAAIDGSTGSTYYADSVKGRFTISRDNAKNTVYLQMNSLKPEDTAVYYCNAESIPPYSITKFDYWGQGTQGTVSS
polyreactivity (PSR sort gate): low polyreactivity

QVQLVESGGGLVQAGGSLRLICAASGSTFGPYDMGWYRQAPGKERELVADITSGGSTYYADSVKGRFTISRDNAKNTVYLQMNSLKPEDTAVYYCAADRVWPYYQYDYWGQGTQVTVSS
polyreactivity (PSR sort gate): low polyreactivity

QVHLVESGGGLVQAGGSLRLSCAASGSTFRIYSMGWYRQAPGKERELVAGITGNGGSTRYADSVKGRFTISRDNAKNTVYLQMNSLKPEDTAVYYCAARWTRQRYRTSYYSWGQGTQVTVSS
polyreactivity (PSR sort gate): high polyreactivity

QVQLVESGGGLVQAGGSLRLSCAATGRTFTGNVMGWYRQAPGKERELVAAISRSGTSTYYADSVKGRFTISRDNAKNTVYLQMNSLKPEDTAVYYCAARRTAGYRSGEYDYWGQGTQVTVSS
polyreactivity (PSR sort gate): high polyreactivity

QVQLVESGGGLVQAGGSLRLSCAASGSIFVNYAMGWYRQAPGKERELVAAITLRGGSTFYADSVKGRFTISRDNAKNTVYLQMNSLKPEDTAVYYCAASSLRYRAYKSLFDYWGQGTQVTVSS
polyreactivity (PSR sort gate): low polyreactivity

QVQLVESGGGLVQAGGSLRLSCAASGYIIWSYAMGWYRQAPGKERELVAGISYSGGSTYYADSVKGRFTISRDNAKNTVYLQMNSLKPEDTAVFYCAALRRGYVPFGYWGQGTQVTVSS
polyreactivity (PSR sort gate): high polyreactivity

QVQLVESGGGLVQAGGSLRLSCAASGRTFYAYAMGWYRQAPGKERELVAAINTSGGRTYYADSVKGRFTISRDNAKNTVYLQMNSLKPEDTAVYYCAADVYTFYPRRYDYWGQGTQVTVSS
polyreactivity (PSR sort gate): low polyreactivity

QVQLVESRGGLVQAGGSLRLSCAASGRIFGLYAMGWYRQAPGKERELVAAYADSVKGRFTISRDNAKNTVYLKMNCLKPEDTAVYYCAKGPLYAGYSIDLRDFNYWGQGTQVNVSS
polyreactivity (PSR sort gate): low polyreactivity

QVQLVESGGGLVQAGGSLRLSCAASGRTLVTNAMGWYRQAPGKERELVAAIDSDDGTTYYADSVKGRFTISRDNAKKTVYLQMNSLKPEDTAVYYCAAESYWRDDYWGQGTQVTVSS
polyreactivity (PSR sort gate): low polyreactivity

QVQLLESGGGLVQARGSLRLSCAASGITFSRYAMGWYRQAPGKERELVAAITRRGGNTYYADSVKGSFTISRVYAKNTVYLQMNSLKPEDTAVYYCAAGYTYYRGDYWGQGTQVTVSS
polyreactivity (PSR sort gate): high polyreactivity

QVQLVESGGGLVQAGGSLRLSCAASGFTFYYYTMGGSRQAPGKERELVAAITSRGGNTYYADSVKGRFTISRDYAKNTVYLQMNSLNPEDTAVYYCAACRFSSRGYGYWGQGTQVTVSS
polyreactivity (PSR sort gate): high polyreactivity

QVQLVESGGGLVQAGGSLRLSCAASGSIYGYYAMGWSRQAPGKERELVAAISWSDGSTYYADSVKGRFTISRDNAKNTVYLQMNSLKPEDTAVYYCAARFTPYITSDDGHYDYWGQGTQVTVSS
polyreactivity (PSR sort gate): low polyreactivity

QVQLLESGGGLVQAGGSLRLSCAASGRMFGSNAMGWYRQAPGKERELVAAITRGGSTNYADSVKGRFTISRDNAKNTVYFQMNSLKPEDTAVYYCAVRWYRKYNYWGQGTQVTVSS
polyreactivity (PSR sort gate): high polyreactivity

QVQLVESGGGLVQAGGSLRLSCAASGSTIYWYAMGWYRQAPGKERELVAAISLSGGSTYYADSVKGRFTFSRDNAKNTVYLQMNSLKPEDTAVYYCAARTSYYVYRHPSGRYDYWGQGTQVTVSS
polyreactivity (PSR sort gate): low polyreactivity

QVQLVESGGVLVQAGGSLRLSCAATVFIFKGNAMGWYRQAPGKEREFVADISARGGSTYYADSVKGRFTISRDNAKNTVYLQMNTLKPEDTAVYYCAATTGLYTRYGYWGQGTQVTVSS
polyreactivity (PSR sort gate): high polyreactivity

QVQLVDSGGGLVQAGGSLRLSCSASGITNGRNTMGLYRQAPGKERELVAAIDSGGNTYADSVKGRFTISRDNAKNTVYLQMNSLKPEDTAVYYCAVDGGEFSSYGYWGQGTQVTVSS
polyreactivity (PSR sort gate): low polyreactivity

QVQLVESGGGLVQAGASLRLSCAASGITFDPNAMGWYRQAPGKERELVAAISTRGGSTYYADSVKGRFTISRDNAKNTVYLQMNSLKPEETAVYYCNALRTGRWFDYWGQGTQVTVSS
polyreactivity (PSR sort gate): high polyreactivity

QVQLVESGGGLVQAGGSLRLSCAASGSIFDYYALGWYRQAPGKERELVATITSGVSTYYADSVKGRFTISRDNAKNTVYLQMNSLKPEDTAVYYCARDYAKSQDLYKYDYWGQGTQVTLSS
polyreactivity (PSR sort gate): low polyreactivity

QVQLVESGGGLVQAGGSLRLSCAASGSTFPTYSMGWYRQAPGKERELVAAITSGSGTNTYYADSVKGRFTISRDNAKNTVYLQMNSLKPEDTAVYYCAKSFRKKYGWGQGTQVTVSS
polyreactivity (PSR sort gate): high polyreactivity

QVQLVESGGGLVHAGGSLRLRCAASGSIFYDNAMGWYTQAPWKERELVASIRWSGDSTYYADSVKGRFTISRDNAKNTVYLQMTSLKPEDTAVYYCAADPVEPYFTAIAYGYWGQGTQVTVSS
polyreactivity (PSR sort gate): low polyreactivity

QVQLVESGGGLVQAGGSLRLSCAASGRIFRKYTMGWYRQAPGKERELVAAITWSGGSTYYADSVKGRFTISRDNAKNTVYLQMNSLKPEDTAVYYCAARSIGGYRAVDTYYYWGHGTQVTVSS
polyreactivity (PSR sort gate): high polyreactivity

QVQLVESGGGLVQAGGSLRLICAASGSTFSAYVMGWYRQAPGKERKLVAAITRSGVSTYYADSVKGRFTISRDNAKNTVYLQMNSLKPEDTAVYYCARRAKGAYWNEYNYWGQGTQVTVSS
polyreactivity (PSR sort gate): high polyreactivity

QVQLVESGGGLVQAGGSLRLSCAASGSIFPDYALGWSRQAPGKESELVAAITRRDDSTYYADSVKGRFTISRDKAKNTVYLQMNSLKPEDTAVYYCNASALDPLYAKDDYWGQGTQVTVSS
polyreactivity (PSR sort gate): low polyreactivity
